# B1: Ac-LDPETGELL-NH2 (peptide)
# peptide: Ac-LDPETGELL-NH2
# notes: phage display-derived peptide DPETGEL extended by two flanking leucines; also called modified phage display-derived peptide; Modified phage display-derived free peptide; source: synthetic peptide (Cambridge Peptides Ltd)
# B2: Ac-DPETGEL-NH2 (peptide)
# peptide: Ac-DPETGEL-NH2
# notes: peptide found by phage display (Hancock et al. 2012); also called phage display-derived peptide; phage display-derived free peptide; source: synthetic peptide (Cambridge Peptides Ltd)
# What was measured:
# Modified Phage CTPR2 = assay: ITC; 166.6 uM Keap1 titrated into 16.66 uM CTPR or peptide; 50 mM Tris-HCl 150 mM NaCl 0.5 mM TCEP pH 8; 20 injections of 2 ul; one-site binding model
# [1] = molecular target: T1, Keap1 Kelch domain construct (residues 321-624) (UniProt Q14145 321-624); assay: as above; settings: both partners purified
# T1 construct: Keap1 Kelch domain, residues 321-624; pNIC28-BSA4 vector with a TEV cleavage site after the His-tag; gift of Alex Bullock (Structural Genomics Consortium, Oxford); No TEV cleavage is described in the purification; also called Kelch domain of Keap1; source: E. coli C41, purified (Ni-NTA, size exclusion chromatography)
# T1 sequence (Q14145 321-624): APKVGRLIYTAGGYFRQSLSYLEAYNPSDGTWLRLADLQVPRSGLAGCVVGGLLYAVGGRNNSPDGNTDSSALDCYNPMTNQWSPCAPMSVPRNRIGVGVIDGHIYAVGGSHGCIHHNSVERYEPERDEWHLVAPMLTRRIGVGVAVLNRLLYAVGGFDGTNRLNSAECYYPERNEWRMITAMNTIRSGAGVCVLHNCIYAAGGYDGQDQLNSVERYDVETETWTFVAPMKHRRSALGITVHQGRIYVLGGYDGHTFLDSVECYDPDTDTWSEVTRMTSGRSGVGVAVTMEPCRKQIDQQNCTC
Molecule,Kd (Modified Phage CTPR2),Kd [1]
Keap1 Kelch domain construct (residues 321-624) (from UniProt Q14145 321-624) (domain or fragment),22 nM,–
B1,–,4.65 nM
B2,–,341 nM
